Laboratory results as given in patent US20240132589A1 (ONCORESPONSE, published 2024).

How the values were obtained:
[1] = biological target: T1, Human LILRB2 on primary human myeloid cells (human, UniProt Q8N423 22-597); test: flow cytometry, AF647-conjugated antibody on human M0 macrophages (7 subjects), average
T1 construct: whole, on cells; the cell type is named under assay; also called LILRB2 on monocytes, M0 and M2c macrophages, myeloid dendritic cells, neutrophils
Protocol: Anti-LILRB2 antibodies were evaluated for their ability to bind myeloid cell subsets expressing LILRB2, including monocytes, M0 macrophages, and M2c macrophages. M2c macrophages are used as a surrogate for tumor-associated macrophages, a suppressive macrophage commonly found in the tumor microenvironment. Frozen monocytes were removed from storage in vapor phase liquid nitrogen and thawed by gentle swirling in a water bath at 37° C., then resuspended in X-VIVO™ 15 media with 10% FBS. PBMC were placed in a 15 mL conical tube and centrifuged at 300×g for 5 minutes, then supernatant was removed. Cells were resuspended in Assay Medium (X-VIVO™ 15+10% FBS) at a cell density of 2.5×10⁵ cells/mL. Cells were plated into 96-well flat bottom plates at 100 μL/well (25K cells/well). M0 and M2c macrophages were generated as described in Example 10 and collected from flasks by incubation for 15 min at RT in Macrophage Detachment Solution DXF, then removed from the flask into X-VIVO™ 15 medium. Following centrifugation, the cells were resuspended in FACS Blocking Buffer D (FACS Buffer+10% FBS+0.5 mg/mL human IgG1) then incubated at 4° C. for 30 minutes. […]

[2] = biological target: T2, Human LILRB1 on transiently transfected HEK293-6E cells (human, UniProt Q8NHL6 24-650); test: flow cytometry, transiently transfected HEK293-6E cells
T2 construct: whole, on cells; also called hLILRB1
Protocol: To determine that the anti-LILRB2 antibodies specifically bind to LILRB2 and not other LILRB and LILRA family members, a cross-reactivity assay was performed. Cross-reactivity of the LILRB2 antibodies to other LILRB proteins was assessed by antibody binding to transiently transfected HEK293-6E cells, measured by flow cytometry. Binding was evaluated to HEK293-6E cells transiently transfected with human LILRB-1, -2, -3, -4, and 5 plasmids (Origene, Nos. RC219949, RC217935, RC211228, RC220932, RC206516) or to cells transiently transfected with human LILRA-1, -2, -4, -5, and -6 plasmids (Origene, Nos. RC210808, RC205626, RC220452, RC212310 RC212965). […] Murine primary antibodies to LILRA and LILRB targets and corresponding isotype controls were used to confirm specific binding of all targets tested (R&D Systems) while an AF647 F(ab′)₂ fragment goat anti-mouse antibody (Jackson ImmunoResearch, No. 115-606-062) was used for the detection of bound positive control antibodies. No binding of B2A-IgG4 or B2A-IgG1 to LILRB-1, -3, -4, or -5 was observed, and no binding of either antibody to LILRA-1, -2, -4, -5, or -6 was observed, confirming specificity of these antibodies.

[3] = biological target: T3, Recombinant human LILRB2 protein (ELISA antigen) (human, UniProt Q8N423 22-460); test: ELISA, plate-coated recombinant human LILRB2
T3 construct: also called LILRB2-His; recombinant LILRB2
Protocol: To confirm binding to human and cynomolgus LILRB2, antibodies in supernatants were evaluated for binding by enzyme-linked immunosorbent assay (ELISA). Recombinant LILRB2 proteins (human: SEQ ID NO: 48; cynomolgus) were diluted in PBS to 2 μg/mL and added to 384-well high-binding ELISA plates (Greiner Bio-One Microlon™) at 25 μL/well and incubated at 4° C. overnight. The plates were washed three times with Wash Buffer (0.05% Tween® 20 in PBS), using a microplate washer and then blocked with 90 μL/well of ELISA Blocking Buffer A (1% BSA in PBS) for 1 hour at room temperature (RT). After blocking, 25 μL/well of LILRB2 antibodies or isotype control were added to the plates and incubated for 1 hour at RT. After primary antibody binding, plates were washed three times with Wash Buffer using a microplate washer. Secondary detection antibody (HRP-goat anti-rabbit Fab fragment) was diluted to 1:3000 in assay diluent (1% BSA in PBS) and 25 μL/well was added to plates and incubated at RT protected from light for 1 hour. Following incubation, plates were washed four times with Wash Buffer, using a microplate washer. After removal of the final wash, 25 μL/well of 1-Step™ Ultra TMB-ELISA Substrate Solution (Thermo Fisher, No. 34028) was added and plates were incubated for 5-10 min at RT, protected from light. After development, the reaction was stopped by addition of 25 μL/well of 0.3 M HCl, and plates were read using an EnVision (Perkin Elmer) microplate reader at 450 nm. EC₅₀ values were calculated based on log concentration of the primary antibodies at optical density at 450 nm.
Select humanized variant antibodies were purified and tested for their ability to bind human LILRB2 by ELISA, using the method described in Example 2, and binding to HEK293T cells expressing human LILRB2, using the method described in Example 4. Representative data are shown for IgG4 variants in Table 6.

T1 sequence (Q8N423 22-597): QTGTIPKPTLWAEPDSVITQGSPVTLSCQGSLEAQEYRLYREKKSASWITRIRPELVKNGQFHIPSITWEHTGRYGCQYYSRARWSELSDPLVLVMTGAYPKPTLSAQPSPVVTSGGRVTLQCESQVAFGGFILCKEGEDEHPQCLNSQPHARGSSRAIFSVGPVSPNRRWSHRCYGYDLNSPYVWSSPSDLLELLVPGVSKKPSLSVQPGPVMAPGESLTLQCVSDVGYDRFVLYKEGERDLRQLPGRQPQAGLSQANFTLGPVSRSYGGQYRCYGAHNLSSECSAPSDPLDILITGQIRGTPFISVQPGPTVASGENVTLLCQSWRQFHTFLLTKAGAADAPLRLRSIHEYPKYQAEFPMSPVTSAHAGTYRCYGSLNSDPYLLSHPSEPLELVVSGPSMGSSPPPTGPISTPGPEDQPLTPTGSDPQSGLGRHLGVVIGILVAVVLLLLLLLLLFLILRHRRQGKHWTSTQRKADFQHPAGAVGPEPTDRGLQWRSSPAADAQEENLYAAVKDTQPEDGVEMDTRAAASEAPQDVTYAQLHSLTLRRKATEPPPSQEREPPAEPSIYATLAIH
T3 sequence (Q8N423 other isoform, or with tags, fused parts or gaps limits assumed): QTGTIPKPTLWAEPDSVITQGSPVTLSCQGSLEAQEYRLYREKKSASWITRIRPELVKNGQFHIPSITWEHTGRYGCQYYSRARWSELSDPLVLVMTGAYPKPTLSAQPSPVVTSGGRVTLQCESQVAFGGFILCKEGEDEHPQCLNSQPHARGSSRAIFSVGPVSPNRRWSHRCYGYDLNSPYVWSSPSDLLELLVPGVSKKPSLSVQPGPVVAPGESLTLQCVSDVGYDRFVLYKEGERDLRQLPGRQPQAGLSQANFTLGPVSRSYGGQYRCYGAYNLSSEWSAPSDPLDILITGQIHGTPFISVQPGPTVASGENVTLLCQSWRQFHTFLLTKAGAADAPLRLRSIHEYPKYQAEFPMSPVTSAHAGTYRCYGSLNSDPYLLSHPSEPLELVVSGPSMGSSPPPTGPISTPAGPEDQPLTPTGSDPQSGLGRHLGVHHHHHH
T2 sequence (Q8NHL6 24-650): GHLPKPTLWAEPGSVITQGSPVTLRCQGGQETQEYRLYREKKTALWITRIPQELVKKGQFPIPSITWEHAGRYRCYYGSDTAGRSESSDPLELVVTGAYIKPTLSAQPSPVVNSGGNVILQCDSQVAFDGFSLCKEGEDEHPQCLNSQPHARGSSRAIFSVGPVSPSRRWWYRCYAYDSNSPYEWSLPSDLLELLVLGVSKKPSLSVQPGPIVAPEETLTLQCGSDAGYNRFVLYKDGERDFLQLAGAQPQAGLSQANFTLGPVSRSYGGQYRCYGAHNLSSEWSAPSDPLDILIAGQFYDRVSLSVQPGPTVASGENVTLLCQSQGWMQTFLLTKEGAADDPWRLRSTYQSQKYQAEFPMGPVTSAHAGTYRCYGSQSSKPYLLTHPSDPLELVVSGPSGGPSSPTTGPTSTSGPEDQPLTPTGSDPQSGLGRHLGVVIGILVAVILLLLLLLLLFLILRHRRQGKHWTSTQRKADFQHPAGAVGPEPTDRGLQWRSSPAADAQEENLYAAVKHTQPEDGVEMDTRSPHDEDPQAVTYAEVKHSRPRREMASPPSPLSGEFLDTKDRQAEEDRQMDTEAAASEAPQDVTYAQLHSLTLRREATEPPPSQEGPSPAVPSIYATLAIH

B1: B2H1-55 (antibody, V domains shown)
VH: EVQLLESGGGLVQPGTSLTLSCAASGFSLSTYAMSWVRQAPGKGLEWIGWIYNDGSTYYAAWAKGRFTISKDTSKTTLYLQITSLRAEDTATYFCAREGDYIGYFNIWGQGTLVTVSS
VL: DVVMTQTPSSVSAALGGTVTIKCQASQSIGSNLAWYQLKPGQRPKLLIYAAATLASGGSSRFKGSGSGTDFTLTISSLEPADAATYYCQSYVSGSSDVAFGGGTEVVVK
notes: Humanized variant, human IgG1 / kappa; also called humanized variant B2H1-55; humanized LILRB2 antibody B2H1-55
EC50 [1]: 0.0748 µg/mL

B2: B2A-IgG1 (antibody)
heavy: not shown
light: DVVMTQTPSSVSAALGGTVTIKCQASQSIGSNLAWYQLKPGQRPKLLIYAAATLASGGSSRFKGSGSGTDFTLTISDLECADAATYYCQSYVSGSSDVAFGGGTEVVVKRTVAAPSVFIFPPSDEQLKSGTASVVCLLNNFYPREAKVQWKVDNALQSGNSQESVTEQDSKDSTYSLSSTLTLSKADYEKHKVYACEVTHQGLSSPVTKSFNRGEC
notes: Rabbit variable regions on human IgG1 / kappa constant regions; AF647-conjugated in some flow assays; also called B2A-IgG1 chimera; anti-LILRB2 B2A-IgG1
MFI [2]: 43 MFI

B3: B2A-IgG4 (antibody)
heavy: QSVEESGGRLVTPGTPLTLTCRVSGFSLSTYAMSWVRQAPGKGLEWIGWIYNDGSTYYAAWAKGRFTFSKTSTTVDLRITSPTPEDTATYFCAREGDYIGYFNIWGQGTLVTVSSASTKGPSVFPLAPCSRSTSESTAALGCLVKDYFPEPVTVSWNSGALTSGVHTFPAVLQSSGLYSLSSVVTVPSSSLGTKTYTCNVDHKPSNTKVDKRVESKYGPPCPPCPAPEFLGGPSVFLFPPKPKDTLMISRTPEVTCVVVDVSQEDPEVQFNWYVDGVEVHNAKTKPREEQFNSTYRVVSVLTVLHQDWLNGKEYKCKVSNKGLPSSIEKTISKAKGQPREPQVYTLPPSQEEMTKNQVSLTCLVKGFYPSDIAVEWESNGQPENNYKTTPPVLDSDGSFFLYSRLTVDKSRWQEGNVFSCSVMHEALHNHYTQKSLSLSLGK
light: DVVMTQTPSSVSAALGGTVTIKCQASQSIGSNLAWYQLKPGQRPKLLIYAAATLASGGSSRFKGSGSGTDFTLTISDLECADAATYYCQSYVSGSSDVAFGGGTEVVVKRTVAAPSVFIFPPSDEQLKSGTASVVCLLNNFYPREAKVQWKVDNALQSGNSQESVTEQDSKDSTYSLSSTLTLSKADYEKHKVYACEVTHQGLSSPVTKSFNRGEC
notes: Rabbit variable regions on human IgG4 / kappa constant regions; also called B2A-IgG4 chimera; Parent B2A-IgG4
EC50 [3]: 0.00235 µg/mL
